This note sets out measurements from patent US7740853.

This test has as its target mouse low affinity IgE receptor FcεRII (mouse) (UniProt P20693). Put plainly: FACS analysis of 0.12A3 cells with the B3B4 antibody. (Flow cytometry measures light scatter and fluorescence of single cells or particles in a stream.)
Chain of UniProt P20693 (P20693 whole entry): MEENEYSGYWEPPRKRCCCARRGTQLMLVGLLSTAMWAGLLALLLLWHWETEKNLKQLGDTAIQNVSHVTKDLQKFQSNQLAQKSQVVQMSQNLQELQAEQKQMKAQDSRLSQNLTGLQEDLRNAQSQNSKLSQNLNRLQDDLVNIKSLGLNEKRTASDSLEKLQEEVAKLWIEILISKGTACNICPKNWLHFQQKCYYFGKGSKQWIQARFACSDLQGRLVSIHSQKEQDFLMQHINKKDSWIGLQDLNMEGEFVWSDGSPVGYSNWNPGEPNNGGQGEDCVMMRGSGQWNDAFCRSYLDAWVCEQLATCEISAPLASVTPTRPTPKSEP

Substance “B3B4 antibody against the FcεRII receptor (Pharmigin)” yielded a percent of cells on which the receptor was expressed of 54%.
